{"source": "paper PMC4853233", "proteins": {"B1": {"name": "twisted gastrulation (TWSG1): N80Q/N146Q (protein)", "parent chain": "MKSHYIVLALASLTFLLCLPVSQSCNKALCASDVSKCLIQELCQCRPGEGNCPCCKECMLCLGALWDECCDCVGMCNPRNYSDTPPTSKSTVEELHEPIPSLFRALTEGDTQLNWNIVSFPVAEELSHHENLVSFLETVNQLHHQNVSVPSNNVHAPFPSDKERMCTVVYFDDCMSIHQCKISCESMGASKYRWFHNACCECIGPECIDYGSKTVKCMNCMF"}}, "assay": "anti-FLAG western blot, 293T cells", "settings": "glycan lost; control: WT-TWSG1 adenovirus", "data": [{"protein": "B1", "values": [{"measurement": "expression_or_secretion", "value": "no change"}]}]}
